Source: patent publication US20250297021A1 (SHANDONG SIMCERE BIOPHARMACEUTICAL CO NO 1, published 2025)
Values joined by “and” are separate entries in the source; they are usually repeats but may differ in a detail not shown here. Identical values can stand only once.

Assays:
[1] = target: T1, human BCMA on cells (human, UniProt Q02223 1-184); experiment: FACS, H929 cells
T1 construct: whole, on cells; also called H929 cells; U266 cells
T1 sequence (looked up): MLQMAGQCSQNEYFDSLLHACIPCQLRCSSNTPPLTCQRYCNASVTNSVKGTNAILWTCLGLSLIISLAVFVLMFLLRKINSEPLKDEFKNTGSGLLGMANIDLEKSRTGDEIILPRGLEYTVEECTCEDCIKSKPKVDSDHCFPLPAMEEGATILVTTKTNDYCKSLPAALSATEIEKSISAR
Description: (§1) The desired cells were scale-up cultured in T-75 cell culture flasks to the logarithmic growth phase, and the cells were pipetted into a single cell suspension. After the cells were counted, the cells were centrifuged and the cell pellet was resuspended in FACS buffer (PBS+2% fetal calf serum) to 2×10⁶ cells per ml, and the suspension was added to the 96-well FACS reaction plate at 50 μl per well, then the sample to be tested of the chimeric antibody was added at 50 μl per well and the mixture was incubated at 4° C. for 1 h. The obtained mixture was centrifuged and washed 3 times with a PBS buffer. […] The obtained mixture was centrifuged and washed 3 times with a PBS buffer. 100 μl of the mixture was taken for detection and result analysis by FACS (FACS Canto™, purchased from BD Company). Data analysis was performed by software (FlowJo) to obtain the mean fluorescence intensity (MFI) of the cells. Then, a software (GraphPad Prism8) was used for analysis, data fitting and EC50 calculation. The results are shown in Table 10 and FIGS. 10A-10B, FIGS. 11A-11B, and FIGS. 12A-12B. All seven chimeric antibodies bind to three types of BCMA-expressing endogenous cells.

[2] = target: T1, human BCMA on cells; experiment: FACS, H929 cells; remark: listed apart in the source
Description: (§2) H929 cells, U266 cells and RPMI8226 cells were subjected to scale-up culture in T-75 cell culture flask to logarithmic growth phase, and the cells were pipetted to single cell suspension. After counting the cells, centrifugation was performed and the cell pellet was resuspended in FACS buffer (PBS+2% fetal calf serum) to 2×10⁶ cells per ml, and the obtained suspension was added to a 96-well FACS reaction plate at 50 μl per well.

[3] = target: T2, human BCMA-His protein (human, UniProt Q02223 1-54); experiment: competition ELISA, coated human BCMA; blocked ligand hAPRIL-biotin
T2 construct: bought; also called human BCMA protein; not shown: His tag
T2 sequence (looked up): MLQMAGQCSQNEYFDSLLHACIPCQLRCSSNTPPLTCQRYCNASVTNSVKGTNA

[4] = target: T1, human BCMA on cells; experiment: FACS, RPMI8226 cells
Description: as §1

[5] = target: T3, monkey BCMA-His protein (monkey, UniProt A0A2K5UD97 1-53); experiment: ELISA, coated monkey BCMA-His
T3 construct: bought; monkey species not further stated for this product; also called monkey BCMA protein

[6] = target: T1, human BCMA on cells; experiment: FACS, U266 cells
Description: as §2

[7] = target: T1, human BCMA on cells; experiment: FACS, RPMI8226 cells; remark: listed apart in the source
Description: as §2

[8] = target: T2, human BCMA-His protein; experiment: ELISA, coated human BCMA-His
[9] = target: T1, human BCMA on cells; experiment: FACS, U266 cells; remark: listed apart in the source
Description: as §1

[10] = target: T4, human BCMA-His protein (human, UniProt Q02223 1-54); experiment: SPR, antibody captured on Protein A chip, BCMA-His in solution, 1:1 Langmuir
T4 construct: Bought protein; also called human BCMA protein; BCMA antigen protein; not shown: His tag
T4 sequence (looked up): T2 sequence (looked up)
Description: (§3) A sample buffer and a running buffer were HBS-EP+ (10 mM HEPES, 150 mM NaCl, 3 mM EDTA and 0.05% surfactant P20) (GE Healthcare; BR-1006-69). The flow-through cell was set to 25° C. The sample block was set to 16° C. Both were pretreated with the running buffer. In each cycle, an antibody to be tested was first captured with a Protein A chip, and then a single concentration of BCMA antigen protein was injected. The binding and dissociation processes of the antibody and the antigen protein were recorded, and finally Glycine pH 1.5 (GE Helthcare; BR-1003-54) was used to complete chip regeneration. Binding was measured by injecting different concentrations of BCMA-His in solution for 240 s with a flow rate of 30 μL/min. The concentration started from 200 nM (see the detailed results for the actual concentration in the test) and was diluted at 1:1, making a total of 5 concentrations. The dissociation phase was monitored for up to 600 s and was triggered by switching from sample solution to running buffer. The surface was regenerated by washing with a 10 mM glycine solution (pH 1.5) for 30 s at a flow rate of 30 μL/min. Bulk refractive index difference was corrected by subtracting the response obtained from the goat anti-human Fc surface. Blank injection was also subtracted (=double reference). For calculation of apparent KD and other kinetic parameters, Langmuir 1:1 model was used. The binding rate (Kₐ), dissociation rate (Kdis) and binding affinity (KD) of the chimeric antibodies to human BCMA protein are shown in the table, wherein REGN5459-hlgG1 and HPN217-hHcAb antibodies were used as controls.

[11] = target: T5, human BCMA-His protein (human, UniProt Q02223 1-54); experiment: SPR, antibody captured on Protein A chip, BCMA-His as analyte
T5 construct: Analyte in the SPR assay; also called human BCMA protein; BCMA antigen protein; not shown: His tag
T5 sequence (looked up): T2 sequence (looked up)
Description: as §3
The specific method was the same as that in Example 6. The binding rate (Kₐ), dissociation rate (Kdis) and binding affinity (KD) of the humanized antibodies to human BCMA protein are shown Table 38, wherein REGN5459-hlgG1 antibody is used as a control.

[12] = target: T6, BCMA expressed endogenously on U266 and H929 cells (UniProt Q02223 1-184, limits assumed); experiment: FACS on U266 cells
T6 construct: whole, on cells; The cell line (U266 or H929) is named under assay in each row; also called B cell maturation antigen; CD269
T6 sequence (looked up): T1 sequence (looked up)
Description: as §1
The specific method was the same as that in Example 5 (C). First, the binding of humanized antibodies to U266 cells was detected. Based on the results, some humanized antibodies were selected and tested for binding to H929 cells. […]

T3 sequence (A0A2K5UD97 entry or part of it limits assumed): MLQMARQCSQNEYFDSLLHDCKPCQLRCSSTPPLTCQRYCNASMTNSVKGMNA

B1: REGN5459-hIgG1 (antibody, V domains shown)
VH: EVQLVESGGGLVQPGGSLRLSCAASGFTFSNFWMTWVRQAPGKGLEWVANMNQDGSEKYYVDSVKGRFTISRDNAKSSLYLQMNSLRAEDTAVYYCARDREYCISTSCYDDFDYWGQGTLVTVSS
VL: not shown
[1]
  EC50: 8.39 nM and 7.74 nM
[2]
  EC50: 6.78 nM
[3]
  IC50 (read off the curve): ~5 nM
[4]
  EC50: 6.79 nM and 4.52 nM
[5]
  EC50 (read off the curve): ~0.1 nM
[6]
  EC50: 9.12 nM
[7]
  EC50: 10.4 nM
[8]
  EC50 (read off the curve): ~0.1 nM
[9]
  EC50: 9.52 nM and 12.8 nM

B2: REGN5459-hIgG1 (antibody, V domains shown)
VH: B1 VH
VL: not shown
notes: also called REGN5459-hlgG1; control antibody
[10]
  Kd: 0.2 nM
  koff: 0.00017 s⁻¹
  kon: 850000 M⁻¹ s⁻¹

B3: REGN5459-hIgG1 (antibody, V domains shown)
VH: B1 VH
VL: not shown
notes: Positive control antibody
[11]
  Kd: 0.233 nM
  koff: 0.000178 s⁻¹
  kon: 766000 M⁻¹ s⁻¹
[12]
  EC50: 9.81 nM and 19.4 nM and 9.49 nM and 18.2 nM

B4: HPN217-hHcAb (VHH)
VHH: EVQLVESGGGLVQPGRSLTLSCAASTNIFSISPYGWYRQAPGKQRELVAAIHGTSTLYADSVKGRFTISRDNAKNSIYLQMNSLRPEDTALYYCNKVPWGDYHPGNVYWGQGTQVTVSS
notes: also called control antibody
[10]
  Kd: 0.818 nM
  koff: 0.00273 s⁻¹
  kon: 3.34e+06 M⁻¹ s⁻¹
